Assay results as given in patent US20250376533A1 (FUTUREGEN BIOPHARMACEUTICAL BEIJING, published 2025).
Where a chain is given by its changes, count along the chain named. Names may count otherwise.

T1: rat CD40 antigen (ACROBiosystems) (rat, UniProt A6JXD6 20-193)
T1 construct: Bought antigen coated on ELISA plates; construct not described
T1 sequence: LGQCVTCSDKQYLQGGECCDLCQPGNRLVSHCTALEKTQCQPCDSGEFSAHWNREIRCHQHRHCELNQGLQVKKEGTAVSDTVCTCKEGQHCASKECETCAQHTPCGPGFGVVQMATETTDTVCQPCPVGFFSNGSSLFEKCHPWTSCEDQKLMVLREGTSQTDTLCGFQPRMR

B1: anti-PD-L1/CD40 bispecific antibody 1606 (bispecific antibody, human IgG2, kappa)
light: DIQMTQSPSSLSASVGDRVTITCRASQDIRNYLNWYQQKPGKAPKLLIYYTSRRDSGVPSRFSGSGSGTDYTLTISSLQPEDFATYFCQQGKTLPWTFGGGTKVEIKRTVAAPSVFIFPPSDEQLKSGTASVVCLLNNFYPREAKVQWKVDNALQSGNSQESVTEQDSKDSTYSLSSTLTLSKADYEKHKVYACEVTHQGLSSPVTKSFNRGEC
heavy: EVQLVESGGGLVQPGGSLRLSCAASGFTFSDYYMSWVRQAPGKGLEWVGFIRNKANGYTTEYAASVKGRFTISRDNSKNTLYLQMNSLRAEDTAVYYCARYGGLRQGWYFDVWGQGTLVTVSSASTKGPSVFPLAPCSRSTSESTAALGCLVKDYFPEPVTVSWNSGALTSGVHTFPAVLQSSGLYSLSSVVTVPSSNFGTQTYTCNVDHKPSNTKVDKTVERKCCVECPPCPAPPVAGPSVFLFPPKPKDTLMISRTPEVTCVVVDVSHEDPEVQFNWYVDGVEVHNAKTKPREEQFNSTFRVVSVLTVVHQDWLNGKEYKCKVSNKGLPAPIEKTISKTKGQPREPQVYTLPPSREEMTKNQVSLTCLVKGFYPSDIAVEWESNGQPENNYKTTPPMLDSDGSFFLYSKLTVDKSRWQQGNVFSCSVMHEALHNHYTQKSLSLSPGGGGGSGGGGSGGGGSGEVQLVESGGGLVQPGGSLRLSCAASGFTFDYYTQCWFRQAPGKEREWVSCISSSEGSTYYADSVKGRFTISRDNSKNTVYLQMNSLKTEDTAVYYCAARKGGPLTIENFFDYWGQGTQVTVSS
notes: First polypeptide chain = anti-CD40 light chain; second polypeptide chain = anti-CD40 heavy chain with the 1541 VHH joined to its C-terminus by a G4S linker
B2: anti-PD-L1/CD40 bispecific antibody 1607 (bispecific antibody, human IgG2, kappa)
light: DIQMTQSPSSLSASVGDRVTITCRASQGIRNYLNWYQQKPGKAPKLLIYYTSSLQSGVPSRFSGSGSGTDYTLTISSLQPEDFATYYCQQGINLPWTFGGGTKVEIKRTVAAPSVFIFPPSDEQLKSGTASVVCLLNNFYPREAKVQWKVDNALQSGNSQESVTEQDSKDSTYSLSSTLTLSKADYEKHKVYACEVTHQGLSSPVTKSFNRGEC
heavy: B1 heavy with N79S, R105K, Q106K, V112L
notes: as for B1
B3: anti-PD-L1/CD40 bispecific antibody 1608 (bispecific antibody, human IgG2, kappa)
light: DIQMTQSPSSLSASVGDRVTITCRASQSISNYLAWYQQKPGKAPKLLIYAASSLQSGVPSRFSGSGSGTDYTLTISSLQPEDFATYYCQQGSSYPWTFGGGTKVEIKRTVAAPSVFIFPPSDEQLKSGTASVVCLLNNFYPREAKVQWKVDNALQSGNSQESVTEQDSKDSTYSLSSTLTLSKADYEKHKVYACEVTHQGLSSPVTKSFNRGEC
heavy: B1 heavy with D31N, N79S, S87R, R105K, Q106V, V112L
notes: as for B1
B4: anti-PD-L1/CD40 bispecific antibody 1609 (bispecific antibody, human IgG2, kappa)
light: B1 light with D28T, R30S, N31S, R53T, R54L, D55Q, F87Y, K92N, T93A, L94Y
heavy: B1 heavy with D31N, N79S, R105K, Q106I, V112L
notes: as for B1
B5: anti-PD-L1/CD40 bispecific antibody 1652 (bispecific antibody, human IgG2, kappa)
light: B1 light
heavy: B1 heavy with G57A
notes: as for B1
B6: anti-PD-L1/CD40 bispecific antibody 1654 (bispecific antibody, human IgG2, kappa)
light: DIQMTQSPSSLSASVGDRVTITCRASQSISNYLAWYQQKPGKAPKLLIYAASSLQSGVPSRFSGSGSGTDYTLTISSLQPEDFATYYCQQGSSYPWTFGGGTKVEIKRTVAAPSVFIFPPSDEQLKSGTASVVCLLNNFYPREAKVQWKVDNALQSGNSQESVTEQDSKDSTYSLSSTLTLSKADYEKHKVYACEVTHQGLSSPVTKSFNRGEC
heavy: B1 heavy with D31N, G57A, N79S, S87R, R105K, Q106V, V112L
notes: as for B1
B7: anti-PD-L1/CD40 bispecific antibody 1655 (bispecific antibody, human IgG2, kappa)
light: B1 light with D28T, R30S, N31S, R53T, R54L, D55Q, F87Y, K92N, T93A, L94Y
heavy: B1 heavy with D31N, G57A, N79S, R105K, Q106I, V112L
notes: as for B1

molecular target: T2, human CD40 antigen (ACROBiosystems) (human, UniProt P25942 21-193); experiment: bridging ELISA: coated human CD40, serially diluted bispecific antibody, detection with biotin-labeled human PD-L1 and streptavidin-HRP, OD450
T2 construct: Bought antigen coated on ELISA plates; construct not described
T2 sequence (P25942 21-193 limits assumed): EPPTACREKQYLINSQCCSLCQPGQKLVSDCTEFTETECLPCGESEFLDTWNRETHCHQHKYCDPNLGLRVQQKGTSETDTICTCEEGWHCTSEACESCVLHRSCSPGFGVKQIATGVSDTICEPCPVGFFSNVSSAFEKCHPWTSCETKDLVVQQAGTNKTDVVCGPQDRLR
Procedure: Antigen human CD40 (purchased from ACROBiosystems) was coated with 1 μg/mL carbonate buffer (pH=9.6) in an ELISA plate at 100 μL per well, followed by incubation at 4° C. overnight. The wells were washed 5 times with PBST. 300 μL/well of PBST containing 1% BSA was added to block the wells, and the plate was incubated at room temperature for 1 hour. The wells were washed 5 times with PBST. […] The wells were washed 5 times with PBST. Biotin-labeled human PD-L1 (FutureGen Biopharmaceutical) diluted with PBST containing 1% BSA was added at 100 μL per well, and the plate was incubated at room temperature for 1 hour. The wells were washed 5 times with PBST. Streptavidin-HRP (BioLegend, Cat. No. 405210) diluted with PBST containing 1% BSA was added at 100 μL per well, and the plate was incubated at room temperature for 30 minutes. Colorimetric substrate TMB was added at 100 μL per well and allowed to develop color at room temperature for 10 minutes, followed by the addition of 1 M sulfuric acid to terminate the reaction. The OD_[…] was read on a microplate reader to analyze the results, and the EC₅₀ was calculated using a 4-parameter fit binding curve.

Binder | EC50 [nM]
B1 | 0.04
B2 | 0.032
B3 | 0.029
B4 | 0.039
B5 | 0.032
B6 | 0.026
B7 | 0.039

molecular target: T3, CD40 on HEK-Blue CD40L cells (InvivoGen) (UniProt P25942 21-277, limits assumed); experiment: flow cytometry, competition with 10 nM Biotin-CD40L on HEK-Blue CD40L cells
T3 construct: whole, on cells; also called HEK-Blue CD40L cells that highly express CD40
T3 sequence (P25942 21-277 limits assumed): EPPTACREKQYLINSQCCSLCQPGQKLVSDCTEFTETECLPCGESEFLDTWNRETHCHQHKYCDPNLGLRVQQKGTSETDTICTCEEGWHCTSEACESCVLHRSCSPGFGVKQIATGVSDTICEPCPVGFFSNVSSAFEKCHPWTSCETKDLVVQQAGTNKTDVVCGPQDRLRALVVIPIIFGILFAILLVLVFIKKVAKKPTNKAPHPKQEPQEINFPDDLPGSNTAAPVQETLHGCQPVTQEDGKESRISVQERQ
Procedure: The blocking effect of bispecific antibodies on CD40/CD40L binding was tested using HEK-Blue CD40L cells that highly express CD40. The specific method is as follows: HEK-Blue CD40L cells were collected and resuspended in pre-cooled PBS containing 2% FBS at a density of 1E7 cells/mL, and then added to a 96-well plate at 50 μL per well, i.e., 5E5 cells/well. Biotin-CD40L (FutureGen Biopharmaceutical) and serially diluted bispecific antibody were then added at 50 μL per well, with a final concentration of Biotin-CD40L of 10 nM, and the plate was incubated at 4° C. for 1 hour. The wells were washed twice with pre-cooled PBS. Streptavidin-PE (BioLegend, Cat. No. 405203) diluted in pre-cooled PBS containing 2% FBS was added, and the plate was incubated at 4° C. for 30 minutes. The wells were washed twice with pre-cooled PBS. The cells were then resuspended in pre-cooled PBS containing 2% FBS and assayed by flow cytometry.

Binder | IC50 [nM]
B1 | 0.78
B2 | 0.703
B3 | 4.54
B4 | 3.16
B5 | 0.852
B6 | 7.7
B7 | 8.63

molecular target: T3, CD40 on HEK-Blue CD40L cells (InvivoGen); experiment: cell-based or functional assay

Binder | CD40 agonistic activity (A)/(B) Ratio, EC50 without over with CHO/PD-L1 | CD40 agonistic activity EC50 (nM) with CHO/PD-L1 (B), SEAP reporter [nM] | CD40 agonistic activity EC50 (nM) without CHO/PD-L1 (A), SEAP reporter [nM]
B1 | 3.7 | 0.017 | 0.061
B2 | 2.4 | 0.012 | 0.029
B3 | 20.2 | 0.02 | 0.396
B4 | 28 | 0.02 | 0.556
B5 | 4.1 | 0.022 | 0.092
B6 | 23.2 | 0.027 | 0.633
B7 | 25.3 | 0.027 | 0.686

molecular target: T2, human CD40 antigen (ACROBiosystems); experiment: ELISA, coated antigen
Procedure: (§1) The binding ability of bispecific antibody to human PD-L1 and human CD40, as well as the species specificity, was detected using an enzyme-linked immunosorbent assay (ELISA). The specific method is as follows: human PD-L1, cynomolgus PD-L1, rat PD-L1, mouse PD-L1, human CD40, cynomolgus CD40, rat CD40, and mouse CD40 antigens (all purchased from ACROBiosystems) were coated with 1 μg/mL carbonate buffer (pH=9.6) in an ELISA plate at 100 μL per well, followed by incubation at 4° C. overnight. The wells were washed 5 times with PBST. 300 μL/well of PBST containing 1% BSA was added to block the wells, and the plate was incubated at room temperature for 1 hour. The wells were washed 5 times with PBST. […] The wells were washed 5 times with PBST. […] The wells were washed 5 times with PBST. Colorimetric substrate TMB was added at 100 μL per well and allowed to develop color at room temperature for 10 minutes, followed by the addition of 1 M sulfuric acid to terminate the reaction. The OD_{450 nm} was read on a microplate reader to analyze the results, and the EC₅₀ was calculated using a 4-parameter fit binding curve.
(§2) These bispecific antibodies are not able to bind to rat PD-L1 and CD40 or mouse PD-L1 and CD40.

Binder | EC50 [nM]
B1 | 0.024
B2 | 0.02
B3 | 0.022
B4 | 0.021
B5 | 0.021
B6 | 0.013
B7 | 0.025

molecular target: T4, human PD-L1 antigen (ACROBiosystems) (human, UniProt Q9NZQ7 19-238); experiment: ELISA, coated antigen
T4 construct: Bought antigen coated on ELISA plates
T4 sequence (Q9NZQ7 19-238 limits assumed): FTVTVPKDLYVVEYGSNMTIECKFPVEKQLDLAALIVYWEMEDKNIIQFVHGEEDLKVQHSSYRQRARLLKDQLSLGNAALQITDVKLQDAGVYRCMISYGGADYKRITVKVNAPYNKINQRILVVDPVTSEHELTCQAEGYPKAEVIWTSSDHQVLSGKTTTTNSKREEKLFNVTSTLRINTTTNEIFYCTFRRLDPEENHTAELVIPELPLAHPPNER
Procedure: as §1, §2

Binder | EC50 [nM]
B1 | 0.039
B2 | 0.036
B3 | 0.038
B4 | 0.034
B5 | 0.035
B6 | 0.031
B7 | 0.039

molecular target: T5, cynomolgus PD-L1 antigen (ACROBiosystems) (cynomolgus, UniProt G7PSE7 19-238); experiment: ELISA, coated antigen
T5 construct: Bought antigen coated on ELISA plates; construct not described
T5 sequence (G7PSE7 entry or part of it): as the sequence (Q9NZQ7 19-238 limits assumed) above, with A33T, A34S, S62N, R68Q, Q82R, F173L, T185A, T192I, H215L counted along it
Procedure: as §1, §2

Binder | EC50 [nM]
B1 | 0.022
B2 | 0.019
B3 | 0.019
B4 | 0.016
B5 | 0.018
B6 | 0.045
B7 | 0.023

molecular target: T1, rat CD40 antigen (ACROBiosystems); experiment: ELISA, coated antigen
Procedure: as §1, §2

Binder | binding result
B1 | no binding
B2 | no binding
B3 | no binding
B4 | no binding
B5 | no binding
B6 | no binding
B7 | no binding

molecular target: T6, cynomolgus CD40 antigen (ACROBiosystems) (cynomolgus, UniProt G7PG38 21-193); experiment: ELISA, coated antigen
T6 construct: Bought antigen coated on ELISA plates; construct not described
Procedure: as §1, §2

Binder | EC50 [nM]
B1 | 0.02
B2 | 0.016
B3 | 0.02
B4 | 0.019
B5 | 0.017
B6 | 0.013
B7 | 0.006

molecular target: T7, mouse PD-L1 antigen (ACROBiosystems) (mouse, UniProt Q9EP73 19-239); experiment: ELISA, coated antigen
T7 construct: Bought antigen coated on ELISA plates; construct not described
T7 sequence (Q9EP73 19-239 limits assumed): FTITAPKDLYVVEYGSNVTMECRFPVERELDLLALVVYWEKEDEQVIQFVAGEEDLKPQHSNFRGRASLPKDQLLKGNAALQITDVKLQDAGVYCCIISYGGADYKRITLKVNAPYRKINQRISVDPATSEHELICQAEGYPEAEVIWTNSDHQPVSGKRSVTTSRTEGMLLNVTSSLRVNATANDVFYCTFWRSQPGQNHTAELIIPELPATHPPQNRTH
Procedure: as §1, §2

Binder | binding result
B1 | no binding
B2 | no binding
B3 | no binding
B4 | no binding
B5 | no binding
B6 | no binding
B7 | no binding

molecular target: T8, rat PD-L1 antigen (ACROBiosystems) (rat, UniProt D4AE25 19-239); experiment: ELISA, coated antigen
T8 construct: Bought antigen coated on ELISA plates; construct not described
T8 sequence (D4AE25 entry or part of it limits assumed): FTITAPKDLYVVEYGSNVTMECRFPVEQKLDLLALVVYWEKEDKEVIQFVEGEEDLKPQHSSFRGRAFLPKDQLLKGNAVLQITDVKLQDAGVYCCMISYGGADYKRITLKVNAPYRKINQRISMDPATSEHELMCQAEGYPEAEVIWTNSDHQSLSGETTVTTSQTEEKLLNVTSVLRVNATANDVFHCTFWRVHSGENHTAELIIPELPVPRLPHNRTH
Procedure: as §1, §2

Binder | binding result
B1 | no binding
B2 | no binding
B3 | no binding
B4 | no binding
B5 | no binding
B6 | no binding
B7 | no binding

molecular target: T9, mouse CD40 antigen (ACROBiosystems) (mouse, UniProt P27512 24-193, limits assumed); experiment: ELISA, coated antigen
T9 construct: Bought antigen coated on ELISA plates; construct not described
T9 sequence (P27512 24-193 limits assumed): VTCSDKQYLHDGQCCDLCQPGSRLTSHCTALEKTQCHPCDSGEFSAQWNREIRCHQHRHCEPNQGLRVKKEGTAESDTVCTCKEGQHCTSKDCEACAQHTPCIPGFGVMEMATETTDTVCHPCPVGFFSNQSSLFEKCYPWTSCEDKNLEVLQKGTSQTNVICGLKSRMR
Procedure: as §1, §2

Binder | binding result
B1 | no binding
B2 | no binding
B3 | no binding
B4 | no binding
B5 | no binding
B6 | no binding
B7 | no binding
